Laboratory results taken from the nanobody polyreactivity screen of Harvey et al. (2022).

Experiment: yeast display, Sf9 membrane polyspecificity reagent, FACS + sequencing; frameworks hold sequencing errors
Summary of the method: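 Using colony PCR, genes from sorted yeast display clones were amplified, then sequenced on MiSeq at 2 × 250 and filtered by CDR length. The clones had been stained with 10% biotinylated, detergent-solubilized Sf9 membrane reagent for 1 hour at 4 °C and sorted by FACS into low and high (top ~1%) gates on anti-HA and streptavidin fluorescence. Polyreactivity labels come from the gate of origin.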
With “QVQLVESGGGLVQAGGSLRLSCAASGSIFNSYAMGWYRQAPGKERELVAAISKRGGSTYYADSVKGRFTISRDNAKNTVYLQMNSLKPEDTAVYYCAAEYYYAGWSYSYDYWGQGTQVTVSS” the “polyreactivity (PSR sort gate)” value was “high polyreactivity”. In the case of “QVQLVESGGGLVQAGGSLRLSCAASGFTFHNYAMGWYRQAPGKERELVAAITWDGGSTYYADSVKGRFTISRDNEKNTVDLQLNRLKPEDTAVYYCALDQYYYYYADYNFDYWGQGTQVTVSS”, the “polyreactivity (PSR sort gate)” value is reported as “high polyreactivity”. For “QVQIVESGGGLVQAGGSLRLSCAASGRTFDHNAMGWYRQAPGKERELVATISGSGGSTNYADSVKGRFTISRDNAKNTVDLQMNSLKPEDTAVYYCATPRVWYYNQYSELDYWGQGTQVTVSS”, the “polyreactivity (PSR sort gate)” value was “high polyreactivity”. For “QVQLVESGGGLVQAGGSLRLSCAASGSTFKPYAMGWYRQAPGKERELVAAITWSSGSTYYADSVKGRFTISRDNAKNTVYLQMNSLKPEDTAVYYCARDRYSVFEYDYWGQGTQVTVSS”, the “polyreactivity (PSR sort gate)” value was “low polyreactivity”. For “QVQLVESGGGLVQAGGSLRLSCAASGRTLYRYAMGWYRQAPGKERELVAAIRSGGRTNYADSVKGRFTISRDNAKNTVYLLMNSLKPEDTAVYYCAARTLRYPSTYDYWGQGTQVSVSS”, the “polyreactivity (PSR sort gate)” value was “high polyreactivity”. In the case of “QVQLVESGGGLVQAGGSLRLSCAASGSIFKCNSRGWYRQAPVKERELVAAITFSGSSTFYADSVKGRFTISRDTAKNTVYLQMNSLKTEDSALYYCNAVRRQQFGSWGQGTQGTVSS”, the “polyreactivity (PSR sort gate)” value is reported as “high polyreactivity”. With “QVQLVESGGALVQAGGSLRLSCAASGFIFRYYAMGWYRQAPWKERELVATITGRGGSTYYADSVKGRFTISRDNAMNTVYLQMNSLKPEDTAVYYCAKRGYGRYYAYDYWGQGTQVTVSS” the “polyreactivity (PSR sort gate)” value was “high polyreactivity”. With “QVQLVESGGGLVQAGGSLRLSCAAYGRTFSHYAMGWYRQAPGKERELVAGITSGGRTYYADSVKGRFTISRDNAKNTVYLQMNSLKPEDTEVYYCAIRRYTAIWYGYWGQGTQETVSS” the “polyreactivity (PSR sort gate)” value was “high polyreactivity”. In the case of “QVQLVESAGGLVQAGGILRLRCAASGFTFTSNAMGWYRQAPGKEREFVADISNIGGDTTYADSVKGRFTISRDNAKNTVYLQMNSLNPEDTAVYYCNADFAFIENDYCGQGTQVTVSS”, the “polyreactivity (PSR sort gate)” value is reported as “low polyreactivity”. For “QVQLVESGGGLVQAGGSLRLSCAASGLTFNSYDMGWYRQAPGKERELVAAISSGGVLPNYADSVKGRFTISRDNAKNTVYLQMNSLKPEDTAVYYCAAGYEYDVSDFDYWGQGTQVTVSS”, the “polyreactivity (PSR sort gate)” value was “low polyreactivity”. With “QVQLVESGGGLVQAGGSLRLSCAASGRNFEIYAMGWYRQAPGKERELVAAISWRGVSTYYADSVKGRFTISRDNAKNTVYLQMNSLKPEDTAVYYCNKDVDYFWYVEYDYWGQGTQVTVSS” the “polyreactivity (PSR sort gate)” value was “low polyreactivity”. For “QVQLVESGGGLVQAGGSLRLSCAASGRILGYNARGWYRQAPGKEREFVATISKRTGSTRYADSVKGRFTISRDNAKNTVYLQMNSLKPEDTAVYYCAAYYGRFYGKYDYWGQGTQVTVSS”, the “polyreactivity (PSR sort gate)” value was “high polyreactivity”. With “QVQLVESGGGLVQAGGSLRLSCADSGRIYGIYAMGWYRQAPGKERELVAAITNIGGRTYYADSVKGRFTISRDNAKNTVYLQMNSLKPEDTAVYYCAKRWRRRFVDVWSLYDYWGQGTQVTVSS” the “polyreactivity (PSR sort gate)” value was “low polyreactivity”. For “QVQLVESGGGLVQAGGSLRLSCAASGFIFGDYAMGWYRQAPGKERELVAAISRSGGRTYYADSVKGRFTISRDNAKNTVYLQMNSLKPEDTAVYYCAKSSLNIYEYWGQGTQVTVSS”, the “polyreactivity (PSR sort gate)” value was “high polyreactivity”. In the case of “QVQLVESGGGLVQAGGSLRLSCAASGGIFHPNDMGWYRQAPGKESELVAVIDSGDITNYADSVKGRFTISRDNAKNTVYLQMNSLKPEDTAVYYCAADSYSYFTDDHGYWGQGTQVTVSS”, the “polyreactivity (PSR sort gate)” value is reported as “high polyreactivity”. For “QVQLVESGGGLVQAGGSLRLSCAASGFIFKIYAMGWYRQAPGKERELVAAMSSGDNTNYADSVKGRFTISRDNAKNTVYLQMNSLKPEDTAVYYCAADWSPTAASDYWGQGTQVTVSS”, the “polyreactivity (PSR sort gate)” value was “high polyreactivity”. With “QVQLVESGRGLVQAGGSLRLSCAASVNIFRGYTMGRYRQAPGTERELVATITWNGVSTFYADSVKGRFTISRDNAKNTVYLQMHSLKPEDTAVYYCAAYYPSHDYSGFWSDTYEYWGQGTQVTVSS” the “polyreactivity (PSR sort gate)” value was “low polyreactivity”.
